One test addresses T1, chemokine CXCL2 (UniProt P19875 1-107, limits assumed).
T1 construct: 35S-labelled in vitro translation product
T1 sequence (looked up): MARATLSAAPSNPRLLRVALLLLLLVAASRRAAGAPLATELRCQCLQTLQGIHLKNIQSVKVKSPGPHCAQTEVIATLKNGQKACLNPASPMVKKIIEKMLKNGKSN
Nature of the test: GST pull-down, 35S-labelled in vitro translated molecule.

For test [1], the target named is T2, THAP1ΔQRCRR mutant (deletion of residues 168-172) (human, UniProt Q9NVV9 1-213).
T2 sequence: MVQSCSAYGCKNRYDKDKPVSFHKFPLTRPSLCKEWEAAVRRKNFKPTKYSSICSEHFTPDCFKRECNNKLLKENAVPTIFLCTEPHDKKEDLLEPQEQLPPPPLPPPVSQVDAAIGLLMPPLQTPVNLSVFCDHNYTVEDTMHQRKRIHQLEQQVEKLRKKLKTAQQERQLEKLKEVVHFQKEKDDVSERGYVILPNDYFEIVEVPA
Briefly: yeast two-hybrid, SLC/CCL21 bait.

Test [2] addresses T3, THAP1-N2 deletion mutant (amino acids 1-166) (human, UniProt Q9NVV9 1-166).
T3 construct: Gal4 fusion, in vitro translation product or GFP fusion according to assay
T3 sequence: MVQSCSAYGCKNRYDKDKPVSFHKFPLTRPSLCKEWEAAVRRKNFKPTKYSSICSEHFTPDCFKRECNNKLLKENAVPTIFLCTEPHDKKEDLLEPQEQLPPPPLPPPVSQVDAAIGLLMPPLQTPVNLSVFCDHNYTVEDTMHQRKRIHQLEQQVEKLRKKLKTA
Nature of the test: yeast two-hybrid.

Test [3] concerns the target T4, THAP1-N3 deletion mutant (amino acids 1-192) (human, UniProt Q9NVV9 1-192).
T4 construct: Gal4 fusion, in vitro translation product or GFP fusion according to assay
T4 sequence: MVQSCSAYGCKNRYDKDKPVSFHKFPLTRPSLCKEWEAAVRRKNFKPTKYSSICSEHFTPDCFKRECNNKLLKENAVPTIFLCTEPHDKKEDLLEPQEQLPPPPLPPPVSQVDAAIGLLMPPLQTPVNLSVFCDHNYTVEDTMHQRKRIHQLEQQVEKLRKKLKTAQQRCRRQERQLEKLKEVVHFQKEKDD
Briefly: yeast two-hybrid.

In test [4] the target is T5, THAP1-C1 deletion mutant (amino acids 90-213) (human, UniProt Q9NVV9 90-213).
T5 construct: Gal4 fusion, in vitro translation product or GFP fusion according to assay; also called THAP1-CL; THAP1ΔTHAP
T5 sequence: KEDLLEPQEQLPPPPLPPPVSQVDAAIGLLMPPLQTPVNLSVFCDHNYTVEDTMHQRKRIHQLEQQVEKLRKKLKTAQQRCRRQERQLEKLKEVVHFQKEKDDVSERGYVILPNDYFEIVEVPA
Nature of the test: yeast two-hybrid.

Test [5] deals with T6, GST (glutathione S-transferase) control protein (UniProt P08515 1-218 = GST).
T6 construct: Negative control in GST pull-down assays; also called GST beads; GST alone
Briefly: GST pull-down, 35S-labelled in vitro translated SLC/CCL21. As to the method: To confirm the interaction observed in yeast two-hybrid system, we performed in vitro GST pull down assays. THAP1, expressed as a GST-tagged fusion protein and immobilized on glutathione sepharose, was incubated with radiolabeled in vitro translated SLC/CCL21.

The target in test [6] is T7, human THAP1 (THanatos-Associated-Protein-1), full length (human, UniProt Q9NVV9 1-213).
T7 construct: these tags are not written into the chain; also called hTHAP1; THAP1 wild type
T7 sequence: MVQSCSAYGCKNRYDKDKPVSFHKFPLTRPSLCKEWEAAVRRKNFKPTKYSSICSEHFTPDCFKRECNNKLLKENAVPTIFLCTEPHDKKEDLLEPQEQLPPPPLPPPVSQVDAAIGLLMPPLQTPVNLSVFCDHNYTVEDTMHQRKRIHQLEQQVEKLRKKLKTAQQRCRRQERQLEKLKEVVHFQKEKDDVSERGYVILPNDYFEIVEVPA
Briefly: yeast two-hybrid, chemokine bait and THAP1 prey.

T6 sequence (P08515 whole entry): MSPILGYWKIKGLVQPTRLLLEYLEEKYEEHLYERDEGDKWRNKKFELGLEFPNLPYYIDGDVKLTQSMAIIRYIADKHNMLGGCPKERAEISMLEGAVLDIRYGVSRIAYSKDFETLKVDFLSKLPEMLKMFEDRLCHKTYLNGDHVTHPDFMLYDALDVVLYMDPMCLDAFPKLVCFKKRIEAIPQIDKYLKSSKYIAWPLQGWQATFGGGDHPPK

B1: GST-THAP3 181-284 (chemokine-binding domain of THAP3) (other)
chain: LPPNAEGHVKQVSPRRPQATEAVGRPTGPAGLRRTPNKQPSDHSYALLDLDSLKKKLFLTLKENEKLRKRLQAQRLVMRRMSSRLRACKGHQGLQARLGPEQQS
notes: not shown: GST (glutathione S-transferase of pGEX2T) and its linker at the N end
In the case of B1, in the test with chemokine CXCL2, the binding result is on record as “no binding”.

B2: human chemokine SLC/CCL21, mature form (amino acids 24-134) (ligand)
chain: SDGGAQDCCLKYSQRKIPAKVVRSYRKQEPSLGCSIPAILFLPRKRSQAELCADPKELWVQQLMQHLDKTPSPQKPAQGCRKDRGASKTGKKGKGSKGCKRTERSQTPKGP
notes: GenBank NP-002980; Used as Gal4 fusion in two-hybrid and as 35S-labelled in vitro translation product in pull-downs; also called SLC/6Ckine; SLC/CCL21 wild type
As to B2, the binding result in test [1] is on record as “no binding”; in test [2], “no binding”; in test [3] it was “no binding”; in test [4], “binds”; in test [5], “no binding”; in test [6], “binds”.

(Values after patent US20060270596A1 (CENTRE NATIONAL DE LA RECHERCHE SCIENTIFIQUE CNRS, published 2006).)
